For assay [1], the target named is 硫氧还蛋白(Thioredoxin，Trx). The experiment in a line: indirect ELISA, Trx coated at 1 ug/ml, antibody 125 ng/ml, goat anti-mouse IgG-HRP, OD450 (ref 630). Background: An ELISA detects its analyte on a solid surface through an enzyme-linked reagent.
Assay [2] has as its target 硫氧还蛋白(Thioredoxin，Trx). Briefly: indirect ELISA, Trx coated at 1 ug/ml, antibody 1.95 ng/ml, goat anti-mouse IgG-HRP, OD450 (ref 630).
The target of assay [3] is 硫氧还蛋白(Thioredoxin，Trx). Briefly: indirect ELISA, Trx coated at 1 ug/ml, antibody 1000 ng/ml, goat anti-mouse IgG-HRP, OD450 (ref 630).
The target of assay [4] is 硫氧还蛋白(Thioredoxin，Trx). The experiment in a line: indirect ELISA, Trx coated at 1 ug/ml, antibody 15.63 ng/ml, goat anti-mouse IgG-HRP, OD450 (ref 630).
The target of assay [5] is 硫氧还蛋白(Thioredoxin，Trx). The experiment in a line: indirect ELISA, Trx coated at 1 ug/ml, antibody 0 ng/ml (blank well), goat anti-mouse IgG-HRP, OD450 (ref 630).
Assay [6] deals with 硫氧还蛋白(Thioredoxin，Trx). The experiment in a line: indirect ELISA, Trx coated at 3 ug/ml, supernatant of transiently transfected CHO cells diluted 1000-fold, goat anti-mouse-HRP, OD450 (ref 630).

Sequence of 硫氧还蛋白(Thioredoxin，Trx) (P0AA25 2-109): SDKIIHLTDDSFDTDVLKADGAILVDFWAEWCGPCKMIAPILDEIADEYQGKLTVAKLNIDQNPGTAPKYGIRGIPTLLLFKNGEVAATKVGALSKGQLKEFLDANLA

B1: 实施例4的硫氧还蛋白的单克隆抗体(WT) (antibody, mouse IgG1, kappa, V domains shown)
VH: EVQLQQSGPMLVKPGASVTISCKASGFTITDYNLHWVRQSHGKSLEWIGYITSYNGGTGYNQKFKTKATLTVDKSSTTAYMELRSLTSDDSALYYCARNFRNYFEHWGQGTTLTVSS
VL: DIQMTQPTSSLSASLGDRVTISCRASQDLYNSINWYQQKPDGTVKLLIYYTSRIHSGVPSRFSGSGSGTDYSLTISNLEQEDIATYFCQQGNSIPRTFGGGTKLEIKR
B1: the OD with 硫氧还蛋白(Thioredoxin，Trx) [1] is 2.14 OD; in the assay with 硫氧还蛋白(Thioredoxin，Trx) [2] it was 0.488 OD; in the assay with 硫氧还蛋白(Thioredoxin，Trx) [3], 2.31 OD; with 硫氧还蛋白(Thioredoxin，Trx) [4], 1.62 OD; with 硫氧还蛋白(Thioredoxin，Trx) [5], 0.057 OD; in the assay with 硫氧还蛋白(Thioredoxin，Trx) [6] it was above 1 OD.

The values above are taken from patent CN111574631A.
